From US20180155451A1 (published 2018) come the findings set out here.

Sequences and labels used below:
T1: FcγRIIb (human, UniProt P31994 43-217)
T1 construct: extracellular domain; also called FcgRIIb; 2b
T1 sequence (looked up): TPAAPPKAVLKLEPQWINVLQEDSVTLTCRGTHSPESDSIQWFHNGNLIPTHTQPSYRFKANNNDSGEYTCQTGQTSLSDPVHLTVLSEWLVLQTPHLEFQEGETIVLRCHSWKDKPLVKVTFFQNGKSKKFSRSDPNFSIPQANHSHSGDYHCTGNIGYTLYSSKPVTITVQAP

B1: GpH7-A5/GpH7-B3 variant (E269_01G)/GpL16-k0 (antibody, human IgG1, kappa)
heavy 1: not shown
heavy 2: not shown
light: DIVMTQSPLSLPVTPGEPASISCQASESLVHSNRNTYLHWYLQKPGQSPQLLIYKVSNRFSGVPDRFSGSGSGTDFTLKISRVEAEDVGVYYCSQNTHVPPTFGQGTKVEIERTVAAPSVFIFPPSDEQLKSGTASVVCLLNNFYPREAKVQWKVDNALQSGNSQESVTEQDSKDSTYSLSSTLTLSKADYEKHKVYACEVTHQGLSSPVTKSFNRGEC
notes: IgG1 heterodimer, mutation in the GpH7-B3 chain only; also called He Ab
B2: GpH7-A5/GpH7-B3 variant (L235_12R)/GpL16-k0 (antibody, human IgG1, kappa)
heavy 1: not shown
heavy 2: not shown
light: B1 light
notes: as for B1
B3: GpH7-A5/GpH7-B3 variant (E269_07I)/GpL16-k0 (antibody, human IgG1, kappa)
heavy 1: not shown
heavy 2: not shown
light: B1 light
notes: as for B1
B4: GpH7-A5/GpH7-B3 variant (E269_08L)/GpL16-k0 (antibody, human IgG1, kappa)
heavy 1: not shown
heavy 2: not shown
light: B1 light
notes: as for B1
B5: GpH7-A5/GpH7-B3 variant (E269_14T)/GpL16-k0 (antibody, human IgG1, kappa)
heavy 1: not shown
heavy 2: not shown
light: B1 light
notes: as for B1
B6: GpH7-A5/GpH7-B3 variant (E269_19Q)/GpL16-k0 (antibody, human IgG1, kappa)
heavy 1: not shown
heavy 2: not shown
light: B1 light
notes: as for B1
B7: GpH7-A5/GpH7-B3 variant (E269_06M)/GpL16-k0 (antibody, human IgG1, kappa)
heavy 1: not shown
heavy 2: not shown
light: B1 light
notes: as for B1
B8: GpH7-A5/GpH7-B3 variant (E269_16H)/GpL16-k0 (antibody, human IgG1, kappa)
heavy 1: not shown
heavy 2: not shown
light: B1 light
notes: as for B1
B9: GpH7-A5/GpH7-B3 variant (D265_10E)/GpL16-k0 (antibody, human IgG1, kappa)
heavy 1: not shown
heavy 2: not shown
light: B1 light
notes: as for B1
B10: GpH7-A5/GpH7-B3 variant (E269_05P)/GpL16-k0 (antibody, human IgG1, kappa)
heavy 1: not shown
heavy 2: not shown
light: B1 light
notes: as for B1
B11: GpH7-A5/GpH7-B3 variant (G236_03V)/GpL16-k0 (antibody, human IgG1, kappa)
heavy 1: not shown
heavy 2: not shown
light: B1 light
notes: as for B1
B12: GpH7-A5/GpH7-B3 variant (E269_18N)/GpL16-k0 (antibody, human IgG1, kappa)
heavy 1: not shown
heavy 2: not shown
light: B1 light
notes: as for B1
B13: GpH7-A5/GpH7-B3 variant (E269_04F)/GpL16-k0 (antibody, human IgG1, kappa)
heavy 1: not shown
heavy 2: not shown
light: B1 light
notes: as for B1
B14: GpH7-A5/GpH7-B3 variant (E269_13S)/GpL16-k0 (antibody, human IgG1, kappa)
heavy 1: not shown
heavy 2: not shown
light: B1 light
notes: as for B1
B15: GpH7-A5/GpH7-B3 variant (E269_03V)/GpL16-k0 (antibody, human IgG1, kappa)
heavy 1: not shown
heavy 2: not shown
light: B1 light
notes: as for B1
B16: GpH7-A5/GpH7-B3 variant (E269_20W)/GpL16-k0 (antibody, human IgG1, kappa)
heavy 1: not shown
heavy 2: not shown
light: B1 light
notes: as for B1
B17: GpH7-A5/GpH7-B3 variant (E269_02A)/GpL16-k0 (antibody, human IgG1, kappa)
heavy 1: not shown
heavy 2: not shown
light: B1 light
notes: as for B1
B18: GpH7-A5/GpH7-B3 variant (E269_15Y)/GpL16-k0 (antibody, human IgG1, kappa)
heavy 1: not shown
heavy 2: not shown
light: B1 light
notes: as for B1
B19: GpH7-A5/GpH7-B3 variant (G236_02A)/GpL16-k0 (antibody, human IgG1, kappa)
heavy 1: not shown
heavy 2: not shown
light: B1 light
notes: as for B1

The target in one assay is T2, FcγRIa (human, UniProt P12314 16-292).
T2 construct: extracellular domain; also called FcgRI; 1a
T2 sequence (P12314 16-292): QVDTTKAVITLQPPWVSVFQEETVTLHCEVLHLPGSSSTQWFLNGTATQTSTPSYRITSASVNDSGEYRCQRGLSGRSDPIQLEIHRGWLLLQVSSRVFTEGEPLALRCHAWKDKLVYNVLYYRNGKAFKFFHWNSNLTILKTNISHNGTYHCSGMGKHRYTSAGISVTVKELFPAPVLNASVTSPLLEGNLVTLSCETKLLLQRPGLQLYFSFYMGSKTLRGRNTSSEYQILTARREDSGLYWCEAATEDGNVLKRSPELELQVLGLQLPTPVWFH
Nature of the assay: SPR, captured antibody; relative to GpH7-A5/GpH7-B3/GpL16-k0. For orientation: Surface plasmon resonance follows binding to a sensor surface in real time, without labels.
As for B1, the He/Con_1a was 104 relative, HeCon Ab = 100. B2: the He/Con_1a is 78 relative, HeCon Ab = 100. Regarding B3, the He/Con_1a is 103 relative, HeCon Ab = 100. On the same count and under the same terms, to B4 belongs 104 relative, HeCon Ab = 100; to B5, 106 relative, HeCon Ab = 100. Regarding B6, the He/Con_1a is 105 relative, HeCon Ab = 100. Regarding B7, the He/Con_1a was 104 relative, HeCon Ab = 100. B8: the He/Con_1a is 106 relative, HeCon Ab = 100. As to B9, the He/Con_1a is 101 relative, HeCon Ab = 100. Take B10: the He/Con_1a was 102 relative, HeCon Ab = 100.

Turning to B11, the He/Con_1a was 89.9 relative, HeCon Ab = 100. Consider B12, for which the He/Con_1a was 102 relative, HeCon Ab = 100. As to B13, the He/Con_1a was 103 relative, HeCon Ab = 100.

For B14, the He/Con_1a is 103 relative, HeCon Ab = 100. The same measure, in the same setting: then B15, with 103 relative, HeCon Ab = 100; and B16, with 105 relative, HeCon Ab = 100; and B17, with 104 relative, HeCon Ab = 100. Turning to B18, the He/Con_1a was 106 relative, HeCon Ab = 100. Turning to B19, the He/Con_1a is 100 relative, HeCon Ab = 100.

For the next assay, the target named is T1, FcγRIIb. The assay is described as above.
For B1, the He/Con_2b was 51.5 relative, HeCon Ab = 100. As for B3, the He/Con_2b was 43.9 relative, HeCon Ab = 100. Take B4: the He/Con_2b was 42.9 relative, HeCon Ab = 100. Regarding B5, the He/Con_2b was 50.6 relative, HeCon Ab = 100. For the molecule B6, the He/Con_2b was 44.3 relative, HeCon Ab = 100. Turning to B7, the He/Con_2b was 46.7 relative, HeCon Ab = 100. Take B8: the He/Con_2b was 38.5 relative, HeCon Ab = 100. Take B9: the He/Con_2b is 38.2 relative, HeCon Ab = 100. Turning to B10, the He/Con_2b was 52.6 relative, HeCon Ab = 100. On the same count and under the same terms, to B11 belongs 35.3 relative, HeCon Ab = 100; to B12, 44.8 relative, HeCon Ab = 100; to B13, 45 relative, HeCon Ab = 100. For the molecule B14, the He/Con_2b is 47.8 relative, HeCon Ab = 100. On the same count and under the same terms, to B15 belongs 45.1 relative, HeCon Ab = 100; to B16, 42.5 relative, HeCon Ab = 100; to B17, 49.9 relative, HeCon Ab = 100.

Consider B18, for which the He/Con_2b was 44.7 relative, HeCon Ab = 100. As to B19, the He/Con_2b was 96.5 relative, HeCon Ab = 100.
